Data: paper PMC3408443

Biological target: MHC II molecules of Flt3L-mobilized splenic CD11c+ DCs from Balb/c×C57Bl/6 (I-A^b,d/E^d) F1 mice (mouse (endogenous in splenic DCs))
Assay: affinity purification with mass spectrometry

amount of peptide eluted from MHC II: 15 fmol/µL | copies per cell presented on MHC II: 180 copies/cell
B1: … MHC II peptide derived from endogenous apolipoprotein E (peptide)
peptide: KELEEQLGPVAEETR
